{"source": "paper PMC10987521", "about": "“An all-in-one tetrazine reagent for cysteine-selective labeling and bioorthogonal activable prodrug construction” (Nature Communications, 2024)", "key": {"B16F10 melanoma tumor": {"system": "B16F10 melanoma tumor", "test": "In vivo anticancer efficacy, subcutaneous B16F10 melanoma tumor model", "set-up": "species or system BALB/c nude mice", "conditions": "four i.v. courses, 3.67 μmol·kg^−1 (TCO-P4 36.7 μmol·kg^−1), n = 5", "procedure": "Tumor-bearing mice were established by subcutaneously injecting a suspension of 5 × 10^5 B16F10 cells per mouse into the front flank of each nude mouse. When tumor volume reached 50−70 mm^3, the animals were randomly divided into five groups (n = 5). The mice were administered different compounds suspended in PBS via the tail vein every 3 days for a total of four times.\nThe mice underwent four treatment courses on day 0, day 3, day 6, and day 9. Tumor size and body weight were measured every day. Tumor volume was calculated via the following formula: V = 1/2 × (minor axis) × (major axis)[2].\nAfter 12 days, the mice were sacrificed and dissected to obtain tumor tissues and main organs, including heart, liver, spleen, lung, and kidney. Subsequently, all tissues were fixed in a 4% paraformaldehyde solution, routinely paraffin-embedded and sectioned, and then stained with hematoxylin and eosin, as well as using TdT-mediated dUTP nick-end labeling (TUNEL) for subsequent pathological analysis. TUNEL-positive cells appeared fluorescent green, representing the apoptosis of tumor cells (nuclei were fluorescent blue, stained with DAPI).\n13. In vivo anticancer efficacy […]\n13.2 Calculation of the tumor growth inhibition values (TGI)\nTumor growth inhibition values (TGI) were calculated using the following formula: TGI (%) = (1 − RTVtreatment/\nRTVcontrol)*100. RTV refers to relative tumor volume, representing the ratio of the volume at the end of treatment to the\nvolume at the beginning of treatment. […]"}, "B16F10 cells [1]": {"system": "B16F10 cells", "test": "Cellular uptake of RGD-Dox over various time intervals using flow cytometry", "type": "cell-based, Mouse", "procedure": "concentration at the indicated time .\n10. In vivo release evaluation of the RGD-FL\nSubsequently, the cells were stained […]\nlaser scanning microscope. […]\nμM) for 60 min. […] Blocking studies were performed by\nCells were pre-treated with 18- […]\nspecific times using a confocal laser scanning microscope.\n11. Cell viability assays\nAfter the incubation period, the\nSubsequently, the cells were trypsinized and underwent three rinses with PBS."}, "B16F10 cells [2]": {"system": "B16F10 cells", "test": "Cell uptake by fluorescence imaging, B16F10", "type": "cell-based, Mouse", "conditions": "B16F10 pre-treated with 50-fold excess of unmodified RGD, 10 μM, 2 h", "procedure": "B16F10 cells were cultured for 48 h. […]\n12.1 Calculation of the fluorescence coefficient (F c)\nThe Fc was the radio calculated\n12.2 Uptake calculation of the B16F10 cells […]\ndeviation were analyzed using Origin Pro 2015.\nB16F10 cells, characterized by α vβ3\nFollowing the incubation period, the\nSubsequently, the cells were trypsinized and underwent three PBS rinses.\n12 .4 Cell uptake analysis by fluorescence imaging"}, "[3]": {"test": "Accumulation of RGD-Dox at various time points in tumor tissues", "type": "in vivo, mice", "conditions": "for tissue level at time molar at 0.5 h / tissue level at time molar at 1 h / tissue level at time molar at 2 h / tissue level at time molar at 4 h / tissue level at time molar at 6 h: BALB/c nude, mouse, tumor tissue, iv, 3.67 umol⸱/kg", "procedure": "13. In vivo anticancer efficacy\n13.1 The accumulation of RGD-Dox at various time points in tumor tissues When the tumor volume reached approximately 400 mm3, five mice in each group received an i.v. injection of 3.67 μmol⸱kg-1 RGD-Dox. After various time intervals, the mice were sacrificed, and tumor tissues were dissected. About 0.5 to 1 g of tissue was ground into a homogenate, and proteins were precipitated by the adding two volumes of acetonitrile (1 mL). After centrifugation, the supernatant was removed, concentrated to 100 µL, and 20 µL was used for HPLC–MS analysis. The RGD-Dox concentration in the sample was determined from a standard curve of the peak area of the characteristic absorption of RGD-Dox at 520 nm. […]"}}, "note": "Entries after “also recorded” stand apart in the source; their conditions may differ.", "data": [{"smiles": "COc1cccc2c1C(=O)c1c(O)c3c(c(O)c1C2=O)C[C@@](O)(C(=O)CO)C[C@@H]3O[C@H]1C[C@H](NC(=O)OCc2nnc(CCSC[C@@H]3NC(=O)[C@@H](Cc4ccc(O)cc4)NC(=O)[C@H](CC(=O)O)NC(=O)CNC(=O)[C@H](CCCNC(=N)N)NC3=O)nn2)[C@H](O)[C@H](C)O1", "note": "[RGD-Dox]", "values": [{"measurement": "tumor growth / inhibition in words", "setting": "B16F10 melanoma tumor", "value": "did not exhibit significant tumor inhibition; also recorded: rapid tumor growth"}, {"measurement": "cellular uptake of RGD-Dox (flow cytometry)", "setting": "B16F10 cells [1]; 0.5 h, Data 1", "value": 4477}, {"measurement": "cellular uptake of RGD-Dox (flow cytometry)", "setting": "B16F10 cells [1]; 0.5 h, Data 3", "value": 4327}, {"measurement": "cellular uptake of RGD-Dox (flow cytometry)", "setting": "B16F10 cells [1]; 1 h, Data 3", "value": 6221}, {"measurement": "cellular uptake of RGD-Dox (flow cytometry)", "setting": "B16F10 cells [1]; 2 h, Data 1", "value": 10116}, {"measurement": "cellular uptake of RGD-Dox (flow cytometry)", "setting": "B16F10 cells [1]; 3 h, Data 3", "value": 12247}, {"measurement": "cellular uptake of RGD-Dox (flow cytometry)", "setting": "B16F10 cells [1]; 4 h, Data 3", "value": 12044}, {"measurement": "cellular uptake over time (flow cytometry)", "setting": "B16F10 cells [1]; B16F10, 10 μM, 37 °C, 0.5–6 h, 488/610 nm", "value": "rapid increase observed within the first 2 hours, followed by a plateau and saturation thereafter; also recorded: high cellular uptake after 2 h"}, {"measurement": "cellular fluorescence (uptake) after blocking with unmodified RGD", "setting": "B16F10 cells [2]", "value": "negligible fluorescence"}, {"measurement": "accumulation at the tumor tissue over time", "setting": "[3]; 3.67 μmol·kg^−1 i.v., 0-6 hours, HPLC–MS 520 nm, n = 5", "value": "continuous increase in the accumulation of RGD-Dox at the tumor site within the first 0-2 hours, followed by a gradual decrease"}, {"measurement": "accumulation of RGD-Dox in tumor tissues", "setting": "[3]; 6 h, Data 3", "value": 0.09596, "unit": "nmol/g"}, {"measurement": "tissue level at time molar at 0.5 h", "setting": "[3]; Data 1", "value": 0.253, "unit": "nmol/g"}, {"measurement": "tissue level at time molar at 0.5 h", "setting": "[3]; Data 2", "value": 0.122, "unit": "nmol/g"}, {"measurement": "tissue level at time molar at 0.5 h", "setting": "[3]; Data 3", "value": 0.145, "unit": "nmol/g"}, {"measurement": "tissue level at time molar at 0.5 h", "setting": "[3]; Data 4", "value": 0.161, "unit": "nmol/g"}, {"measurement": "tissue level at time molar at 0.5 h", "setting": "[3]; Data 5", "value": 0.185, "unit": "nmol/g"}, {"measurement": "tissue level at time molar at 1 h", "setting": "[3]; Data 1", "value": 0.311, "unit": "nmol/g"}, {"measurement": "tissue level at time molar at 1 h", "setting": "[3]; Data 2", "value": 0.321, "unit": "nmol/g"}, {"measurement": "tissue level at time molar at 1 h", "setting": "[3]; Data 3", "value": 0.226, "unit": "nmol/g"}, {"measurement": "tissue level at time molar at 1 h", "setting": "[3]; Data 4", "value": 0.407, "unit": "nmol/g"}, {"measurement": "tissue level at time molar at 1 h", "setting": "[3]; Data 5", "value": 0.29, "unit": "nmol/g"}, {"measurement": "tissue level at time molar at 2 h", "setting": "[3]; Data 1", "value": 0.249, "unit": "nmol/g"}, {"measurement": "tissue level at time molar at 2 h", "setting": "[3]; Data 2", "value": 0.239, "unit": "nmol/g"}, {"measurement": "tissue level at time molar at 2 h", "setting": "[3]; Data 3", "value": 0.408, "unit": "nmol/g"}, {"measurement": "tissue level at time molar at 2 h", "setting": "[3]; Data 4", "value": 0.321, "unit": "nmol/g"}, {"measurement": "tissue level at time molar at 2 h", "setting": "[3]; Data 5", "value": 0.3, "unit": "nmol/g"}, {"measurement": "tissue level at time molar at 4 h", "setting": "[3]; Data 1", "value": 0.296, "unit": "nmol/g"}, {"measurement": "tissue level at time molar at 4 h", "setting": "[3]; Data 2", "value": 0.245, "unit": "nmol/g"}, {"measurement": "tissue level at time molar at 4 h", "setting": "[3]; Data 3", "value": 0.274, "unit": "nmol/g"}, {"measurement": "tissue level at time molar at 4 h", "setting": "[3]; Data 4", "value": 0.16, "unit": "nmol/g"}, {"measurement": "tissue level at time molar at 4 h", "setting": "[3]; Data 5", "value": 0.217, "unit": "nmol/g"}, {"measurement": "tissue level at time molar at 6 h", "setting": "[3]; 6 h, Data 1", "value": 0.0949, "unit": "nmol/g"}, {"measurement": "tissue level at time molar at 6 h", "setting": "[3]; 6 h, Data 2", "value": 0.0855, "unit": "nmol/g"}, {"measurement": "tissue level at time molar at 6 h", "setting": "[3]; 6 h, Data 4", "value": 0.0867, "unit": "nmol/g"}, {"measurement": "tissue level at time molar at 6 h", "setting": "[3]; 6 h, Data 5", "value": 0.129, "unit": "nmol/g"}]}]}
